Reference: the supplement of paper PMC9732359
± gives the uncertainty stated by the source.

Test: protein stability index of a GFP-peptide fusion (yeast GPS) (PSI 1-4); higher = more stable; sorted into four equal gates, so the index is relative within each strain
How it was run: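 Peptides tiling yeast proteins in 17-residue segments were fused downstream of GFP, with Cherry expressed from the same plasmid. As a pooled library in yeast, mid-log cultures grown in leucine-free medium were sorted into four equal gates by GFP/Cherry fluorescence ratio. Gate plasmids were PCR-amplified and Illumina-sequenced, and barcodes linked reads to strains. Each peptide received a protein stability index equal to the sum of each gate's read frequency times its gate number.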

Row | Sequence | protein stability index (doa10∆) | protein stability index (pdr5∆) | protein stability index (san1∆) | protein stability index (ubr1∆)
1 | LALERMVPKRSTIITKA [YCS4] | 1.28 ± 0.1 | 1.47 ± 0.066 | 1.16 ± 0.11 | 1.08 ± 0.091
2 | DTLNETNLKMKRKWSYV [RRP43] | 2.24 ± 0.061 | 2.56 ± 0.04 | 2.98 ± 0.1 | 2.61 ± 0.073
3 | LKDLNLTVSIKIALMNI [RGR1] | 1.34 ± 0.062 | 1.66 ± 0.066 | 1.73 ± 0.077 | 1.21 ± 0.06
4 | NPLMYSGGNNTATIINN [PCI8] | 2.93 ± 0.064 | 2.9 ± 0.057 | 3.12 ± 0.05 | 3.11 ± 0.045
5 | AKLSERSNGSVASLSKR [YJL039C/NUP192] | 2.33 ± 0.052 | 2.06 ± 0.043 | 1.81 ± 0.054 | 1.89 ± 0.035
6 | FNKSAELSRIENEVENI [YCS4] | 3.51 ± 0.17 | 3.4 ± 0.19 | 3.27 ± 0.06 | 3.39 ± 0.17
7 | IPSSKYAYMMNSQSPRG [YLR018C/POM34] | 2.78 ± 0.062 | 2.69 ± 0.066 | 2.75 ± 0.044 | 2.75 ± 0.045
8 | AEKFVPIDIFQIIRRVK [SIR3] | 1.57 ± 0.28 | 1.46 ± 0.15 | – | 1.16 ± 0.2
9 | GIREKRAREKAEAEAEK [RPL13A] | – | 3.5 ± 0.25 | – | –
10 | PITGASLDLIKERRSLK [RPL24A] | 3.04 ± 0.097 | 3.07 ± 0.078 | 3.02 ± 0.067 | 2.98 ± 0.06
11 | SDAQSNLGSNVRNSFPL [REC8] | 3.01 ± 0.07 | 3.12 ± 0.11 | 2.87 ± 0.082 | 3.07 ± 0.055
12 | KLFTTNELMRWPIVQKT [RPN5] | 1.79 ± 0.096 | 1.77 ± 0.078 | – | 1.48 ± 0.044
13 | NRLEIKYHNDLIEKEIQ [SMC1] | 2.35 ± 0.18 | 2.51 ± 0.083 | – | 2.42 ± 0.13
14 | DELILPLPSHALTVQEV [YDL116W/NUP84] | 2.4 ± 0.038 | 2.56 ± 0.036 | 2.15 ± 0.057 | 2.44 ± 0.025
15 | DFDGDEMNLHVPQSEET [RPO21] | 3.04 ± 0.083 | 3.12 ± 0.063 | 2.98 ± 0.045 | 3.23 ± 0.074
16 | DQVLNLCLTEFENCYLE [FAS1] | 3.15 ± 0.1 | 3.2 ± 0.099 | 3.18 ± 0.14 | 3.25 ± 0.048
17 | ANSSTIRVTNSFALPFE [RPN8] | 2.46 ± 0.065 | 2.18 ± 0.05 | 2.73 ± 0.063 | 3.14 ± 0.039
18 | KVEYKIVHDDPASDDIL [ITC1] | 3.05 ± 0.087 | 3.09 ± 0.086 | 3.05 ± 0.17 | 3.21 ± 0.091
19 | ERNASEVRDATLNNIFR [GRR1] | 3.36 ± 0.17 | – | 3.41 ± 0.19 | 3.53 ± 0.16
20 | FQYVIDESSGTSRIDEE [SMC4] | 2.93 ± 0.082 | 2.86 ± 0.09 | 2.05 ± 0.15 | 3.23 ± 0.13
21 | SKEVRGSKIRVMWGKVT [RPL33A] | 2.68 ± 0.1 | 2.35 ± 0.12 | 2.4 ± 0.092 | 2.6 ± 0.067
22 | IVMQLRKCCNHPYLFEG [ISW2] | 2.78 ± 0.087 | 2.53 ± 0.11 | 2.74 ± 0.069 | 2.78 ± 0.11
23 | MSAPTMRSTSILTEHLG [MTW1] | – | – | 2.87 ± 0.24 | –
24 | IGTANYKPLIEERMGQI [SMC4] | 3.1 ± 0.087 | 3.53 ± 0.087 | 3.37 ± 0.059 | 3.27 ± 0.063
25 | IILGTNLYDGAEHKYMP [BRR2] | 3.06 ± 0.12 | 3.47 ± 0.096 | 3.6 ± 0.087 | 3.27 ± 0.1
26 | FLTPMDSIDLAPNTLTN [YML103C/NUP188] | 1.51 ± 0.18 | 1.68 ± 0.1 | 1.98 ± 0.18 | 1.26 ± 0.082

Row | Sequence | protein stability index (doa10∆) | protein stability index (pdr5∆) | protein stability index (san1∆) | protein stability index (ubr1∆)
27 | FFGPTYYQRLRHMVDDK [RPB2] | 1.24 ± 0.046 | 1.26 ± 0.046 | 1.72 ± 0.1 | 1.36 ± 0.053
28 | LMYSITFHHHGRQTVLI [SRB2] | 3 ± 0.07 | 3.18 ± 0.071 | 3.18 ± 0.06 | 3.12 ± 0.039
29 | DETKGFDDNDSGNNYND [MED2] | 3.1 ± 0.055 | 3.07 ± 0.058 | 3.13 ± 0.053 | 3.1 ± 0.048
30 | VTADTVILFDSDWNPQA [ISW2] | 3.08 ± 0.071 | 2.76 ± 0.058 | 2.81 ± 0.089 | 2.52 ± 0.044
31 | IYDFHKMENLMRLIKRV [YJL039C/NUP192] | 2.58 ± 0.097 | 2.67 ± 0.079 | 2.3 ± 0.062 | 2.57 ± 0.073
32 | TAFNKTRGPFHFRAPSR [RPL16B] | 2.95 ± 0.09 | 3.14 ± 0.068 | 2.59 ± 0.066 | 3 ± 0.066
33 | SEKLITKYFEPTSTENN [ECM29] | 2.87 ± 0.076 | 3.09 ± 0.066 | 3.04 ± 0.035 | 2.97 ± 0.041
34 | MSSQIIDRPKHELSRAE [SMD2] | 3.14 ± 0.093 | 3.46 ± 0.12 | 3.2 ± 0.11 | 3.25 ± 0.11
35 | QKKATMSAEEALVYSYI [RPC34] | 1.43 ± 0.14 | 1.08 ± 0.099 | – | 1.36 ± 0.22
36 | KYNRYEKRHKNVPVHVS [RPS11A] | 1.61 ± 0.041 | 1.66 ± 0.044 | 1.69 ± 0.092 | 1.94 ± 0.055
37 | SAVKRLLHVAVSDSNDD [RPN2] | 2.39 ± 0.11 | 3.06 ± 0.071 | 2.56 ± 0.083 | 2.69 ± 0.063
38 | LDAKNKVFVPPKSKSLP [RPO31] | 2.71 ± 0.075 | 3.03 ± 0.062 | 3.37 ± 0.085 | 2.72 ± 0.055
39 | YKVENVTLYWNNAKLLT [ESC2] | 1.71 ± 0.059 | 1.99 ± 0.051 | 1.71 ± 0.076 | 2.19 ± 0.043
40 | ASVTKEILGTAQSVGCR [RPL12A] | 1.35 ± 0.087 | 1.51 ± 0.044 | 1.35 ± 0.082 | 1.61 ± 0.082
41 | KQNNKDFRTRYIDIRTN [MTW1] | 2.69 ± 0.07 | 2.65 ± 0.072 | 2.31 ± 0.1 | 2.62 ± 0.077
42 | DKVDDYTPEEVDKIERE [SMC4] | 1.17 ± 0.11 | 1.45 ± 0.12 | 1.32 ± 0.22 | 1.28 ± 0.11
43 | YHTNPGHSQFTSHYQNY [RPN4] | 2.82 ± 0.067 | 2.9 ± 0.089 | 3.02 ± 0.079 | 3.04 ± 0.054
44 | CDKSVCRKCYARLPPRA [RPL40A] | 2.5 ± 0.078 | 2.93 ± 0.073 | 2.56 ± 0.07 | 2.66 ± 0.062
45 | RETDPLVYNMTSFEQGE [RPT4] | 3.09 ± 0.12 | 2.49 ± 0.11 | 3.23 ± 0.18 | 2.7 ± 0.068
46 | KIAHGTTTLAFRFQGGI [PRE2] | 3.03 ± 0.095 | 3.11 ± 0.073 | 2.84 ± 0.067 | 3.1 ± 0.069
47 | LSSHSSTNSNSKPSTAS [RPN4] | 2.61 ± 0.087 | 2.71 ± 0.082 | 2.93 ± 0.059 | 2.86 ± 0.052
48 | ADVLVDRVVSSDSLDIA [SRP72] | 1.95 ± 0.056 | 1.58 ± 0.072 | 1.42 ± 0.12 | 1.81 ± 0.081
49 | PQSAPNQMGMGTNNGMS [YOR098C/NUP1] | 3.4 ± 0.12 | 3.14 ± 0.13 | 3.29 ± 0.098 | 3.31 ± 0.096
50 | LWSIHPSRQFDHYESNQ [SRB8] | 1.75 ± 0.074 | 2.24 ± 0.068 | 2.13 ± 0.11 | 2.64 ± 0.062
51 | NLYDDVKCWSKFIEKFQ [MED1] | – | 3.07 ± 0.11 | 3.27 ± 0.14 | 3.58 ± 0.29
52 | ASLDGTIRLWECGTGTT [RPN14] | 2.8 ± 0.093 | 2.91 ± 0.13 | 3.19 ± 0.069 | 2.78 ± 0.12
